Residue numbers refer to the chain shown, from its start. Names may count otherwise.
How the values were obtained:
[1] = target: T1, NdmA (wild-type caffeine N1-demethylase) (UniProt H9N289); experiment: cell-based or functional assay
T1 sequence (looked up): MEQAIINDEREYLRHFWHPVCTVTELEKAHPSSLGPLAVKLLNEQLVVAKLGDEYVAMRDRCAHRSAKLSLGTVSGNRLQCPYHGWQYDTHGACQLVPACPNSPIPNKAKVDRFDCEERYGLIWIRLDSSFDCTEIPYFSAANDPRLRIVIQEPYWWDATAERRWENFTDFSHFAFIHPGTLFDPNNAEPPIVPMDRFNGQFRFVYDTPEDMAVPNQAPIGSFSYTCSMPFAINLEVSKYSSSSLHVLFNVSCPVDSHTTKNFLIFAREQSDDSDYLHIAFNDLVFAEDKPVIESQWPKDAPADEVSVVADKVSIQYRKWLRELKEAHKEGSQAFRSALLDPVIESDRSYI

[2] = target: T2, NdmB (wild-type theobromine N3-demethylase) (UniProt H9N290); experiment: cell-based or functional assay
T2 sequence (looked up): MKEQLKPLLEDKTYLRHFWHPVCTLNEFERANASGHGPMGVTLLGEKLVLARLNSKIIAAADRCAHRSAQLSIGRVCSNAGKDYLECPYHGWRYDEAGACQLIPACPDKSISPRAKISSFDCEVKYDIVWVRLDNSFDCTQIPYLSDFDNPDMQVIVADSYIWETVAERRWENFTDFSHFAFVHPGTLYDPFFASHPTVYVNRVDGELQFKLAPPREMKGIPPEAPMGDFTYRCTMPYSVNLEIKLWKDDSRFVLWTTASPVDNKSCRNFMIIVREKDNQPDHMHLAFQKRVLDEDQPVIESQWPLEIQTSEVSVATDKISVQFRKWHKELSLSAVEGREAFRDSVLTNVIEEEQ

B1: NdmD V541W mutant (NdmDW) (enzyme, UniProt H9N291 1-588, looked up)
chain: MNKLDVNQWFPIATTEDLPKRHVFHATLLGQEMAIWRDDSGSVNAWENRCPHRGLRLTLGANTGNELRCQYHGWTYESGTGGCTFVPAHRDAPPPNAARVNTFPVREKHGFIWTTLGQPPGEPISILDDAQLVNAVKTNLHSVVIDADIDGVVSVLRQNLSAFIDVFGAASAEDLHLKSMLQDRGILVTRSGSIAIHFYMQRSTISKCVVHAQVLTPGRPGYELQKNYSYAMNVIRRAAEAVATDLISITDISDQTIEKLEVVRENMTKAPPTHYICEVVTRTQETGDINSYWLKPIGYPLPAFSPGMHISITTPEGSIRQYSLVNGPDERESFIIGVKKEIQSRGGSRSMHEDVKVGTQLKVTLPRNGFPLVQTRKHPILVAGGIGITPILCMAQALDQQGSSYEIHYFARAFEHVPFQDRLTALGDRLNVHLGLGPDETRAKLPDIMEIHNAQDVDVYTCGPQPMIETVSAVALAHGIAEESIRFEFFSKKNDVPVSDEEYEVELKKTGQIFTVSPGSTLLQACLDNDVRIEASCEQGWCGTCITPVVSGDLEHHDTYLSKKERESGKWIMPCVSRCKSKKIVLDL
For B1, the N1-demethylase activity in NdmA cells, lower than in cells with the wild type reductase [1] was 7 % lower, the remaining N-demethylase activity in the in vivo assays (% of the wild-type enzyme) [1] was > 60 and the N3-demethylase activity in NdmB cells, reduction [2] was 36 % reduced. For the same binder, the remaining N-demethylase activity in the in vivo assays (% of the wild-type enzyme) [2] was > 60.

B2: NdmD V541R mutant (NdmDR) (enzyme, UniProt H9N291 1-588, looked up)
chain: B1 chain with W541R
In the case of B2, the N1-demethylase activity in NdmA cells, lower than in cells with the wild type reductase [1] is reported as 30 % lower, the remaining N-demethylase activity in the in vivo assays (% of the wild-type enzyme) [1] is reported as > 60 and the N3-demethylase activity in NdmB cells, reduction [2] is reported as 20 % reduced. The remaining N-demethylase activity in the in vivo assays (% of the wild-type enzyme) [2] was > 60.
